# From PMC4772974 (EMBO Reports, 2016)
# T1: His‐PCM1 (a.a. 1–1,128) (human, UniProt Q15154 1-1128)
# T1 sequence (looked up): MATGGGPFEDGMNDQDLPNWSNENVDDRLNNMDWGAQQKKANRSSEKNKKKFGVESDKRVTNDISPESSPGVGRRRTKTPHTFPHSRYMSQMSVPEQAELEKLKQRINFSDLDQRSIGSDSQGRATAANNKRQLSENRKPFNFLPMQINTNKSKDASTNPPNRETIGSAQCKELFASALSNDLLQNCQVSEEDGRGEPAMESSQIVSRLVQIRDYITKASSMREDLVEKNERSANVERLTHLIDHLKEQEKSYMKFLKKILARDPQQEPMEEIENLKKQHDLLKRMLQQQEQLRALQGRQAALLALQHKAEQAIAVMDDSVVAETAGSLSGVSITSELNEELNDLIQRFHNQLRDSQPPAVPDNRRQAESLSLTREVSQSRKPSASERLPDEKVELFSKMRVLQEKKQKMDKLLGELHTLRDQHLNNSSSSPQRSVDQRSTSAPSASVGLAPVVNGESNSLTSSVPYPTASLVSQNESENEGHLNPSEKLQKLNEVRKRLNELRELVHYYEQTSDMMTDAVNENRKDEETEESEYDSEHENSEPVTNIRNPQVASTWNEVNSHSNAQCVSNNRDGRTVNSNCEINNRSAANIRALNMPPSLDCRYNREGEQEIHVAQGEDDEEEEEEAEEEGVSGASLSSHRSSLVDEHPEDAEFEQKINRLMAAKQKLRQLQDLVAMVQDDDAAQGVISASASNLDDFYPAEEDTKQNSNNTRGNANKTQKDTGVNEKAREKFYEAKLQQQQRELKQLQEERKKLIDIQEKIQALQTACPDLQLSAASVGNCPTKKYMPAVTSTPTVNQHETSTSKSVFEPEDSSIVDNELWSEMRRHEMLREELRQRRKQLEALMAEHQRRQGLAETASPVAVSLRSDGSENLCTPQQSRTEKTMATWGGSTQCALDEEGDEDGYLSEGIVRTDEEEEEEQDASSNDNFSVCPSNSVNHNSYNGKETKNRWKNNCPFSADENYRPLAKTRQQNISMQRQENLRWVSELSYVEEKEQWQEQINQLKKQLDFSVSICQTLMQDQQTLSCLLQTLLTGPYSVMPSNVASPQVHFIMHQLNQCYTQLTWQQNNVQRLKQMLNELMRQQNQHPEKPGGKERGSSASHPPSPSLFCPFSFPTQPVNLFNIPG
# B1: MBP‐Plk4‐WT (enzyme, UniProt O00444 1-970, looked up)
# chain: MATCIGEKIEDFKVGNLLGKGSFAGVYRAESIHTGLEVAIKMIDKKAMYKAGMVQRVQNEVKIHCQLKHPSILELYNYFEDSNYVYLVLEMCHNGEMNRYLKNRVKPFSENEARHFMHQIITGMLYLHSHGILHRDLTLSNLLLTRNMNIKIADFGLATQLKMPHEKHYTLCGTPNYISPEIATRSAHGLESDVWSLGCMFYTLLIGRPPFDTDTVKNTLNKVVLADYEMPSFLSIEAKDLIHQLLRRNPADRLSLSSVLDHPFMSRNSSTKSKDLGTVEDSIDSGHATISTAITASSSTSISGSLFDKRRLLIGQPLPNKMTVFPKNKSSTDFSSSGDGNSFYTQWGNQETSNSGRGRVIQDAEERPHSRYLRRAYSSDRSGTSNSQSQAKTYTMERCHSAEMLSVSKRSGGGENEERYSPTDNNANIFNFFKEKTSSSSGSFERPDNNQALSNHLCPGKTPFPFADPTPQTETVQQWFGNLQINAHLRKTTEYDSISPNRDFQGHPDLQKDTSKNAWTDTKVKKNSDASDNAHSVKQQNTMKYMTALHSKPEIIQQECVFGSDPLSEQSKTRGMEPPWGYQNRTLRSITSPLVAHRLKPIRQKTKKAVVSILDSEEVCVELVKEYASQEYVKEVLQISSDGNTITIYYPNGGRGFPLADRPPSPTDNISRYSFDNLPEKYWRKYQYASRFVQLVRSKSPKITYFTRYAKCILMENSPGADFEVWFYDGVKIHKTEDFIQVIEKTGKSYTLKSESEVNSLKEEIKMYMDHANEGHRICLALESIISEEERKTRSAPFFPIIIGRKPGSTSSPKALSPPPSVDSNYPTRERASFNRMVMHSAASPTQAPILNPSMVTNEGLGLTTTASGTDISSNSLKDCLPKSAQLLKSVFVKNVGWATQLTSGAVWVQFNDGSQLVVQAGVSSISYTSPNGQTTRYGENEKLPDYIKQKLQCLSSILLMFSNPTPNFH
# Assays:
# [1] = target: PCM1 (UniProt Q15154); assay: RFP-Trap co-IP, mCherry-PCM1 with EGFP-PCM1; conditions: reference: mCherry-PCM1-WT* with EGFP-PCM1-WT*; sites S372
# [2] = target: Cep290 (UniProt O15078); assay: GFP-Trap co-IP, immunoblot; conditions: reference: EGFP-PCM1-WT*; sites S372
# [3] = target: BBS4 (UniProt Q96RK4); assay: GFP-Trap co-IP, immunoblot; conditions: reference: EGFP-PCM1-WT*; sites S372
# [4] = target: T1, His‐PCM1 (a.a. 1–1,128); assay: pull-down; MBP-Plk4 on Dynabeads Protein G coupled with anti-MBP antibody; 8 μg His-PCM1(1128) in 600 μl binding buffer (50 mM Tris-HCl pH 7.5, 200 mM NaCl, 2 mM MgCl2, 0.5 mg/ml BSA, 0.05% NP-40), 4°C, 2 h; Coomassie and anti-His blot; conditions: both partners purified
molecule,measurement,setting,value
PCM1 (from UniProt Q15154) mCherry-PCM1-S372A* with EGFP-PCM1-WT*,binding against the reference,[1],weaker
PCM1 (from UniProt Q15154) EGFP-PCM1-S372A*,binding against the reference,[2],weaker
same,binding against the reference,[3],weaker
B1,binding result,[4],binds
